According to paper PMC6864063, “Molecular basis for the interaction between human choline kinase alpha and the SH3 domain of the c-Src tyrosine kinase” (Scientific Reports, 2019):

Target: T1, Choline kinase alpha, full-length (FL) wild type (human, UniProt P35790 1-457)
T1 construct: Choline kinase alpha, unspliced variant ChoKα1, 457 residues, human, UniProt P35790; full length, up to Val457; Cleaved ChoKα constructs were the probes of the pull-downs; also called ChoKα; ChoKα1; source: E. coli Rosetta (DE3)pLysS, purified (HisTrap Ni2+ column, S-200 gel filtration); not shown: His6, N-terminal, cleaved; SUMO, N-terminal, cleaved
Assay: SPR; SH3 domains immobilised on one CM5 chip, ChoKα injected in triplicate, 0.1 to 30 µM, 2 min, PBS pH 7.5, 30 µL/min; steady-state KD from RUmax
Settings: both partners purified

T1 sequence (P35790 whole entry, canonical isoform): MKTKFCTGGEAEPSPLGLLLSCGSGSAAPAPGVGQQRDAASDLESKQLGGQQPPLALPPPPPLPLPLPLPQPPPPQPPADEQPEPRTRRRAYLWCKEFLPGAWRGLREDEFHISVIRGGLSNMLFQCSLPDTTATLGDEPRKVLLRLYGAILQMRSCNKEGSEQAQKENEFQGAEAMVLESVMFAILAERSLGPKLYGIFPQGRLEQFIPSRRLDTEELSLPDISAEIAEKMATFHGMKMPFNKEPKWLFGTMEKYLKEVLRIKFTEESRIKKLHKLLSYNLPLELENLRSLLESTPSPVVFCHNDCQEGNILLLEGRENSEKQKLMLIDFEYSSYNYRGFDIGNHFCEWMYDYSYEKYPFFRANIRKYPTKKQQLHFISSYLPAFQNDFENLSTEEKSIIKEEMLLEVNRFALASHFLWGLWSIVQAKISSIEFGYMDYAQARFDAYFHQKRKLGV

B1: Hck SH3 domain (domain or fragment)
chain: not shown
notes: Src-family kinase Hck, SH3 domain; source: recombinant, purified
For B1, the Kd was 25.9 µM.
